Results reported in the supplement of paper PMC10567573.

B1: TRIM43 (parent)
chain: NRFRVEISFHFEVTNHNIRLFEDV
B2: AUP1 (parent)
chain: EGLLRFSSWPFSIQDVVQPLTLQV
B3: LOXL2 (parent)
chain: RLLRFSSQIHNNGQSDFRPKNGRH

Variants of: B1
Test: protein stability index of a GFP-peptide fusion (GPS, HEK-293T) (PSI 1-6); higher = more stable
Settings: c terminus: a fixed tail appended
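Note: lentivirally expressed fusions sorted by FACS into six bins by GFP to DsRed ratio, PSI derived from sequencing read proportions per bin multiplied by bin number.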

Protein stability index of substitutions, site by site:
N17: K 2.61, Q 3.45, R 2.53
I18: C 4.6, D 1.3, E 2.9, G 2.43, H 3.18, K 1.47, P 3.07, Q 3.52, S 2.35, T 2.09, V 2.97, W 3.01, Y 3.23
R19: D 3.62, H 3.79, I 2.06, P 1.69, Q 2.14, S 3.39, Y 3.54
L20: F 3.05, Q 3.28, R 3.74, V 4.23, Y 2.13
F21: C 2.67, E 2.31, L 2.29, P 1.76, Q 3.09, R 1.88, W 2, Y 3.98
E22: D 2.4, H 3.18, K 2.02, L 2.29, P 2.14, Q 2.31, T 2.66
D23: E 2.56, F 3.88, G 3.13, I 3.66, K 1.95, M 2.12, N 2.91, Q 2.92, Y 2.39
V24: F 2.43, H 4.23, I 2.14, K 2.85, L 1.95, Q 3.09, T 2.44

Variants of: B2
Test: as above
Settings: c terminus: a fixed tail appended

Protein stability index, by site and new letter:
L3: C 4.98, A 1.76, K 2.2, T 4.12, E 2.41, V 2.22, P 2.44, D 1.83
S7: N 2.32, Y 3.72, M 2.94, P 2.2, I 3.04, R 1.33, W 1.83, D 2.32, H 2.13
V24: S 1.79, M 5.7, D 1.97, R 2.75, Q 1.53, N 1.59, I 2.38, K 2.17, W 2.53, E 2.06, G 2.14, L 2.77, T 1.45, A 2.15, Y 3.1, C 2.23, P 1.57, F 3.48
E1: T 1.8, S 2.31, N 2.31, Y 2.78, I 1.02, C 3.48, M 1.43, P 1.82, R 4.19
F6: S 1.24, E 1.36, D 1.46, T 1.06, Q 1.65, H 1.34, P 2.07, N 1.4, Y 1.33, A 1.15, V 1.73, W 2.94, L 2.09, K 1.7
L22: Q 2.11, C 1.85, D 2.61, T 2.47, G 1.6, H 1.75, P 1.52, K 1.76, E 2.15, V 2.62, F 3.96, I 2.13, N 1.27, A 1.68, S 1.85, Y 2.16
I13: R 2.4, H 1.94, K 2.53, C 1.56, T 2.84, W 1.29, D 1.86, E 1.22, F 3.26
Q18: Y 4.33, A 2.25, E 2.6, H 2.53
T21: P 1.8, N 1.74, L 4.97, D 1.58, E 2.9, G 5.2, S 3.58, C 1.52, Q 2.63, V 2.81
L20: T 1.73, H 1.22, P 1.63, Q 2.28, S 2.4, I 5.25, K 1.19, N 1.54, D 1.98, A 1.65, R 1.24, E 1.89
W9: S 1.73, N 1.42, Y 3.88, E 1.66, Q 2, P 1.28, M 2.45, C 3.91, A 3.6, K 2.62, R 1.48, D 1.58, I 2.27, T 1.86, L 2.97
V17: K 2.35, D 1.37, E 1.38, F 2.53, C 3.22, H 3.15, N 2.03
S8: T 2.62, G 2.57, C 2.25, F 3.08, E 2.23, A 2.17
R5: G 3.46, S 2.64, M 1.56, K 1.37, F 3.67, W 3.31, D 1.73, T 3.1, E 4.2
F11: R 1.7, S 3.39, G 1.05, N 1.85, T 2.46, D 1.04, P 2.46, K 1.78, Q 1.73, M 2.22
P10: D 2.04, N 2.05, I 1.55, M 2.26, A 3.01, H 4, T 2.79, G 1.88, V 3.54, Y 3.85
Q23: M 3.98, P 1.45, L 3.58, C 1.61, H 1.98, E 2.65, G 1.4, Y 2.82, D 1.81, S 1.4, K 1.59, A 3.02, R 2.91
L4: K 1.19, S 1.27, C 3.27, N 1.52, I 3.16, D 2.08, G 4
V16: D 1.08, L 1.28, E 1.09, I 2.78, P 3.33, C 3.11, T 3.01, S 4.02, H 3.18, K 2.57
D15: Q 3.59, Y 2.41, L 2.63, N 2.13, I 1.3, E 3.9, K 1.48, M 2.12
S12: M 3.22, G 2.04, H 2.25, D 1.95, P 2.66
G2: E 2.63, H 3.65, C 3.51, R 2.83
Q14: Y 3.36, T 1.79, R 2.64
P19: W 1.56, S 4.01, L 4.13, I 2.96

Variants of: B3
Test: as above
Settings: c terminus: a fixed tail appended

Protein stability index of substitutions, site by site:
R1: A 2.41, C 2.78, D 2.97, E 2.41, F 1.17, G 3.12, H 2.67, I 1.78, K 3.15, L 1.72, M 2.66, N 2.65, P 4.01, Q 2.48, S 2.58, T 2.57, V 1.89, W 1.65, Y 1.71
L2: A 3.68, C 3.82, D 4.51, E 3.98, F 2.82, G 4.6, H 4.21, I 3.28, K 3.91, M 3.27, N 4.58, P 4.63, Q 4.12, R 4.07, S 4.59, T 4.69, V 3.52, W 2.71, Y 3.35
L3: A 3.59, C 2.88, D 3.98, E 4.34, F 3.05, G 3.63, H 3.79, I 3.14, K 3.84, M 3.37, N 3.98, P 3.91, Q 3.99, R 3.81, S 3.77, T 3.95, V 3.44
